{"source": "patent US20220153790A1", "about": "(TECHNISCHE UNIVERSIT T M NCHEN, published 2022)", "key": {"[1]": {"biological_target": "T1, unglycosylated, monobiotinylated extracellular domain of human CD98hc produced in E. coli (human, UniProt P08195 111-529, single biotin on the N-terminal biotin acceptor peptide (BAP))", "T1 construct": "also called hCD98hcED; CD98hcED; not shown: N-terminal biotin acceptor peptide (BAP) from pASK-IBA5(+)-BAP-hCD98hcED", "T1 sequence": "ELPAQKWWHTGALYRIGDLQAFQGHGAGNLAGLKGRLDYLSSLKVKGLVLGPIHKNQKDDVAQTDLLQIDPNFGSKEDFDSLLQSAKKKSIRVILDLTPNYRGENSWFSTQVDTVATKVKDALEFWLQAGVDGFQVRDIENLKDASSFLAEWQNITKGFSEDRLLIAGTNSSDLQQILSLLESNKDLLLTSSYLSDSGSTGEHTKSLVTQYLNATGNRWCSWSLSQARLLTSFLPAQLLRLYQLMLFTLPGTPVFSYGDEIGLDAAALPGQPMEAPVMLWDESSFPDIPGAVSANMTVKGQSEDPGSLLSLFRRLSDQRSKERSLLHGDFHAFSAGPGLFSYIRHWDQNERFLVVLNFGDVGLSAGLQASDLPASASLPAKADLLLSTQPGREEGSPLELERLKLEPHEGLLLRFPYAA", "test": "single clone flow cytometry of E. coli displaying the lipocalin, 1 nM biotinylated hCD98hcED, mean PE fluorescence", "description": "(§1) The bacterial lawn was scraped from the plate(s), resuspended in 50 ml LB/Amp medium, followed by inoculation to an initial OD₅₅₀ of 0.15 at 37° C. Gene expression was induced at OD₅₅₀=0.5 with 10 ng/ml anhydrotetracycline (aTc) for 2.5 h. Approximately 2×10⁸ cells were sedimented and resuspended in PBS with biotinylated hCD98hcED at different concentrations (cycles 1 and 2: 100 nM; cycles 3 and 4: 10 nM; cycles 5 and 6: 1 nM) for 1 h at 4° C. After one washing step with PBS, the bacteria were incubated with 25 μg/ml streptavidin/phycoerythrin (PE) conjugate (Biolegend, San Diego, Calif.) and 3 μM dye-labeled Fab A3C5-DY634 [61] in PBS for 30 min followed by a last washing step in PBS. Bacteria were sorted on a FACSAria Ilu instrument (BD Bioscience, Heidelberg, Germany) using a 488 nm LASER diode with a 585/42 band pass filter or a 633 nm HeNe LASER in combination with a 660/20 band pass filter for excitation/detection of PE and DY634 fluorescence, respectively. Sorted bacteria were plated on LB/Amp agar, incubated at 37° C. for 12 h and then subjected to a new sorting cycle. After BSD cycle 6, single clone analysis was performed by cytofluorimetric analysis of individual colonies. Data were processed using FlowJo v10 software (FlowJo, Ashland, Oreg.). […]"}, "[2]": {"biological_target": "T2, fully glycosylated, monobiotinylated extracellular domain of human CD98hc produced in HEK 293E cells (human, UniProt P08195 111-529, N-linked glycosylation at Asn264, 280, 323 and 405 (UniProt P08195-2); single biotin on the N-terminal BAP)", "T2 construct": "also called hCD98hcEDg; CD98hcEDg; not shown: N-terminal His6 tag and biotin acceptor peptide (BAP) from pDSG-BM-His6-BAP-hCD98hcEDg", "T2 sequence": "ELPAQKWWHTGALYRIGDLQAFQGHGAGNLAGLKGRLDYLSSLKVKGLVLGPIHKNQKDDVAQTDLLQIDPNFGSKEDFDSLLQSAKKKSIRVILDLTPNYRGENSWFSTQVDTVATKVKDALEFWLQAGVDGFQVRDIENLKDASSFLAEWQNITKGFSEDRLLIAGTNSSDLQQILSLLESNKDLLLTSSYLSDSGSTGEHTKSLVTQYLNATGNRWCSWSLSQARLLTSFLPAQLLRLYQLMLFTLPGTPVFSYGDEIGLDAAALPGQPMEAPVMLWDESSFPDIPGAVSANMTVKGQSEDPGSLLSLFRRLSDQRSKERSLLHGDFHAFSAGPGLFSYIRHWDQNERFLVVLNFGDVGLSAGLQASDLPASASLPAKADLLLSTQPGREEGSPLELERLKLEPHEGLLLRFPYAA", "test": "not given"}, "[3]": {"biological_target": "T1, unglycosylated, monobiotinylated …", "test": "SPR (BIAcore 2000), biotinylated hCD98hcED captured on CAP chip, single cycle kinetics", "description": "(§2) Real time surface plasmon resonance (SPR) spectroscopy was performed on a BIAcore 2000 system (BIAcore, Uppsala, Sweden) at 25° C. using HBS-T (20 mM Hepes/NaOH pH 7.5, 150 mM NaCl, 0.005% v/v Tween20) as running buffer. The purified biotinylated m/hCD98hcED (3 μg/ml protein solution in HBS-T produced in HEK cells or E. coli) was immobilized (ARU-225) via streptavidin on a CAP sensorchip of the Biotin CAPture kit (GE Healthcare). SPR single cycle kinetic experiments were performed using five consecutive injections of a 1:2 dilution series of the purified lipocalin variant at a flow rate of 25 μl/min, with 288 s contact time and 3500 s dissociation time after the fifth injection. For multi cycle kinetic experiments, eight samples from a consecutive 1:2 dilution series of the purified lipocalin variant were measured. Rate constants of association and dissociation were calculated from reference-corrected sensorgrams by fitting to a global 1:1 Langmuir binding model using BIAevaluation software (BIAcore). The equilibrium dissociation constants (KD value) were calculated as the quotient koff/kₒₙ. To test competitive binding of the lipocalin variants P3D11, P3A12 and P1E4 to glycosylated hCD98hcED, 100 nM of P3D11 was first injected and followed by a subsequent injection of either 100 nM P3A12 or 100 nM P1E4. HBS-T injections served as negative control."}, "[4]": {"biological_target": "T2, fully glycosylated, monobiotinylated …", "test": "SPR, biotinylated hCD98hcEDg captured on CAP chip", "description": "as §2"}, "[5]": {"biological_target": "T2, fully glycosylated, monobiotinylated …", "test": "SPR, complex dissociation half-life", "description": "as §2"}, "[6]": {"biological_target": "T1, unglycosylated, monobiotinylated …", "test": "SPR, complex dissociation half-life", "description": "as §2"}, "[7]": {"biological_target": "T1, unglycosylated, monobiotinylated …", "test": "flow cytometry of E. coli displaying the lipocalin; hCD98hcED detected by PE fluorescence, display level by Dy634 fluorescence", "description": "as §1"}}}
{"binder": "P3D11 variant D11.1 displayed on the E. coli cell surface (designed binder, One of the variants from error-prone PCR and bacterial surface display; not shown: The display carrier: the A3C5 tag and the engineered beta-domain of the autotransporter EspP (pNGAL146)) QDSTSDLIPAPPLSKVPLQQNFQDNQFHGKWYVVGRAGNTGLREDKDPGKMFATIYELKEDKSYNVTYVWSGQKKCMYSIVTFVPGSQPGEFTLGNIKSAPGQTSWLVRVVSTNYNQHAMVFFKSVTQNREGFAITLYGRTKELTSELKEIFIRFSKSLGLPENHIVFPVPIDQCIDG", "values": [{"measurement": "binding result", "setting": "[1]", "result": "binds"}]}
{"binder": "SEQ ID NO 5 (designed binder) QDSTSDLIPAPPLSKVPLQQNFQDNQFHGKWYVVGRAGNTGLREDKDPGKMFATIYELKEDKSYNVTYVWFGQKKCMYSIVTFVPGSQPGEFTLGNIKSAPGRTSWLVRVVSTNYNQYAMVFFKSVTQNREGFAITLYGRTKELTSELKENFIRFSKSLGLPENHIVFPVPIDQCIDG", "values": [{"measurement": "Kd", "setting": "[2]", "result": "≤ 200", "unit": "nM"}]}
{"binder": "SEQ ID NO 6 (designed binder) QDSTSDLIPAPPLSKVPLQQNFQDNQFHGKWYVVGRAGNTGLREDKDPGKMFATIYELKEDKSFNVTYVWFGQKKCMYSIVTFVPGSQPGEFTLGNIKSAPGRTSWLVRVVSTNYNQHAMVFFKSVTQNREGFAITLYGRTKELTSELKENFIRFSKSLGLPENHIVFPVPIDQCIDG", "values": [{"measurement": "Kd", "setting": "[2]", "result": "≤ 200", "unit": "nM"}]}
{"binder": "SEQ ID NO 7 (designed binder) QDSTSDLIPAPPLSKVPLQQNFQDNQFHGKWYVVGRAGNTGLREDKDPGKMFATIYELKEDKSYNVTYVWFGQKKCMNSIVTFVPGSQPGEFTLGNIKSAPGRTSWLVRVVSTNYNQYAMVFFKSVTQNREGFAITLYGRTKELTSELKENFIRFSKSLGLPENHIVFPVPIDQCIDG", "values": [{"measurement": "Kd", "setting": "[2]", "result": "≤ 200", "unit": "nM"}]}
{"binder": "SEQ ID NO 8 (designed binder) QDSTSDLIPAPPLSKVPLQQNFQDNQFHGKWYVVGRAGNTGLREDKDPGKMFATIYELKEDKSYNVTYVWFGQKKCMYSIVTFVPGSQPGEFTLGNIKSAPGRTSWLVRVVSTNYNQYAMVFFKSETQNREGFAITLYGRTKELTSELKEYFIRFSKSLGLPENHIVFPVPIDQCIDG", "values": [{"measurement": "Kd", "setting": "[2]", "result": "≤ 200", "unit": "nM"}]}
{"binder": "SEQ ID NO 9 (designed binder) QDSTSDLIPAPPLSKVPLQQNFQDNQFHGKWYVVGRAGNTGLREDKDPGKMFATIYELKEDKSYNVTYVWFGQKKCMYSIVTFVPGSQPGEFTLGNIKSAPGRTSWLVRVVSTNYNQHAMVFFKSVTQNREEFAITLYGRTKELTSELKENFIRFSKSLGLPENHIVFPVPIDQCIDG", "values": [{"measurement": "Kd", "setting": "[2]", "result": "≤ 200", "unit": "nM"}]}
{"binder": "SEQ ID NO 10 (designed binder) QDSTSDLIPAPPLSKVPLQQNFQDNQFHGKWYVVGRAGNTGLREDKDPGKMFATIYELKEDKSYNVTYVWSGQKKCMYSIVSFVPGSQPGEYNLGNIKSAPGRTSWLVRVVSTNYNQHAMVFFKSVTQNREGFAITLYGRTKELTSELKENFIRFSKSLGLPENHIVFPVPIDQCIDG", "values": [{"measurement": "Kd", "setting": "[2]", "result": "≤ 200", "unit": "nM"}]}
{"binder": "SEQ ID NO 11 (designed binder) QDSTSDLIPAPPLSKVPLQQNFQDNQFHGKWYVVGRAGNTGLREDKDPGKMFATIYELKEDKSYNVTYVWSGQTKCMYSIVTFVPGSQPGEFTLGNIKSAPGRTSWLVRVVSTNYNQHAMVFFKSVTQNREGFAITLYGRTKELTSELKENFIRFSKSLGLPENHIVFPVPIDQCIDG", "values": [{"measurement": "Kd", "setting": "[2]", "result": "≤ 200", "unit": "nM"}]}
{"binder": "lipocalin variant P3D11 (designed binder, produced soluble in E. coli JM83, monomeric; also called Anticalin P3D11; not shown: C-terminal His6-tag (plasmid pNGAL118)) QDSTSDLIPAPPLSKVPLQQNFQDNQFHGKWYVVGRAGNTGLREDKDPGKMFATIYELKEDKSYNVTYVWFGQKKCMYSIGTFVPGSQPGEFTLGNIKSAPGRTSWLVRVVSTNYNQHAMVFFKSVTQNREGFAITLYGRTKELTSELKENFIRFSKSLGLPENHIVFPVPIDQCIDG", "values": [{"measurement": "Kd", "setting": "[3]", "result": 0.15, "unit": "nM"}, {"measurement": "koff", "setting": "[3]", "result": "3.2e-05", "unit": "s⁻¹"}, {"measurement": "kon", "setting": "[3]", "result": 220000, "unit": "M⁻¹ s⁻¹"}, {"measurement": "Kd", "setting": "[4]", "result": 0.17, "unit": "nM"}, {"measurement": "koff", "setting": "[4]", "result": "5e-05", "unit": "s⁻¹"}, {"measurement": "kon", "setting": "[4]", "result": 300000, "unit": "M⁻¹ s⁻¹"}, {"measurement": "T1/2", "setting": "[5]", "result": 3.83, "unit": "h"}, {"measurement": "T½", "setting": "[6]", "result": 5.99, "unit": "h"}, {"measurement": "Kd", "setting": "[2]", "result": "≤ 200", "unit": "nM"}]}
{"binder": "wtLcn2 displayed on the E. coli cell surface (other, Control in the single clone FACS analysis; also called wild type Lcn2; not shown: The display carrier: the A3C5 tag and the engineered beta-domain of the autotransporter EspP (pNGAL146)) QDSTSDLIPAPPLSKVPLQQNFQDNQFQGKWYVVGLAGNAILREDKDPQKMYATIYELKEDKSYNVTSVLFRKKKCDYWIRTFVPGCQPGEFTLGNIKSYPGLTSYLVRVVSTNYNQHAMVFFKKVSQNREYFKITLYGRTKELTSELKENFIRFSKSLGLPENHIVFPVPIDQCIDG", "values": [{"measurement": "binding result", "setting": "[7]", "result": "no binding (tested: 100 nM hCD98hcED)"}]}
{"binder": "lipocalin variant P3A12 (designed binder, produced soluble in E. coli JM83, monomeric; also called Anticalin P3A12; not shown: C-terminal His6-tag (plasmid pNGAL118)) QDSTSDLIPAPPLSKVPLQQNFQDNQFHGKWYVVGRAGNLGLREDKDPAKMFATIYELKEDKSYNVTYVWFDLKKCKYSIHTFVPGSQPGEFTLGKIKSGPGHTSWLVRVVSTNYNQHAMVFFKWVGQNRENFAITLYGRTKELTSELKENFIRFSKSLGLPENHIVFPVPIDQCIDG", "values": [{"measurement": "Kd", "setting": "[3]", "result": 2.8, "unit": "nM"}, {"measurement": "koff", "setting": "[3]", "result": 0.00017, "unit": "s⁻¹"}, {"measurement": "kon", "setting": "[3]", "result": 62000, "unit": "M⁻¹ s⁻¹"}, {"measurement": "Kd", "setting": "[4]", "result": 1.9, "unit": "nM"}, {"measurement": "koff", "setting": "[4]", "result": 0.0004, "unit": "s⁻¹"}, {"measurement": "kon", "setting": "[4]", "result": 220000, "unit": "M⁻¹ s⁻¹"}, {"measurement": "T1/2", "setting": "[5]", "result": 0.483, "unit": "h"}, {"measurement": "T½", "setting": "[6]", "result": 1.13, "unit": "h"}, {"measurement": "Kd", "setting": "[2]", "result": "≤ 200", "unit": "nM"}]}
